Each block holds one molecule with its values, some of them ahead of it. Where no end group is shown, it is not given here.
Key:
NRP-1 (Homo sapiens) = NRP-1 (Homo sapiens) (UniProt O14786); assay: SPR; settings: cited from earlier work
[1] = biological target: Neuropilin-1 (NRP-1) (human (endogenous in THP-1)) (UniProt O14786)

Molecule: KDKPPR peptide
Kd (NRP-1 (Homo sapiens)): 4.7 µM

uptake of AGuIX@PS@KDKPPR nanoparticles (1 µM, 4 h or 24 h, 37 °C) by M0, M1 and M2 macrophages, porphyrin fluorescence of the cell lysate; control: AGuIX@PS@scramble, 24 h (fold (M0 and M2 against M1, 24 h)) [1]: 3
B1: KDKPPR ligand peptide on AGuIX@PS@KDKPPR nanoparticles (peptide)
peptide: KDKPPR
modifications: also: grafted onto AGuIX nanoparticles with porphyrin and gadolinium

From paper PMC10057379
